Test results as given in publication PMC9408559, “Genome-Wide Analysis of the RAV Gene Family in Wheat and Functional Identification of TaRAV1 in Salt Stress”.

Target: TaRAV1 (GST fusion) (Triticum aestivum, UniProt A0A3B6A018 1-392)
Experiment: EMSA; LightShift Chemiluminescent EMSA kit (Pierce), manufacturer's protocol; buffer, salt, pH and temperature not given
Conditions: protein: recombinant; tags: GST; label: biotin

Sequence of TaRAV1 (GST fusion) (A0A3B6A018 entry or part of it): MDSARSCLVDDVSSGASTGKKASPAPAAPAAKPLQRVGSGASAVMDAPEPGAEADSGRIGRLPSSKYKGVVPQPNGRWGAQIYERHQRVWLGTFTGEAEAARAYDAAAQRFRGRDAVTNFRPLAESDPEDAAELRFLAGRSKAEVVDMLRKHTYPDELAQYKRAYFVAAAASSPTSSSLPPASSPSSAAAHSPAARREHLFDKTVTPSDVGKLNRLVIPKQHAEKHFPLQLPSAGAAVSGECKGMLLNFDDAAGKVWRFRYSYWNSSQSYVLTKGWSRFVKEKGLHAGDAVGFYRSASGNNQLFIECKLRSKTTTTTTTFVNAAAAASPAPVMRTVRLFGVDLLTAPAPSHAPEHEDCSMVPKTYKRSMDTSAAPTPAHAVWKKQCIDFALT

B1: probe with mutated CAACA and CACCTG elements (dsDNA)
DNA 1: CGGCATGTATAAACAATAGACTCGACGGCATGTATAAACAATAGAC
DNA 2: GTCTATTGTTTATACATGCCGTCGAGTCTATTGTTTATACATGCCG
binding result: no binding

B2: probe with CAACA and CACCTG elements (dsDNA)
DNA 1: CGGCAACAATAAACACCTGACTCGACGGCAACAATAAACACCTGAC
DNA 2: GTCAGGTGTTTATTGTTGCCGTCGAGTCAGGTGTTTATTGTTGCCG
binding result: binds
